PMC4352895, “Jarid2 Methylation via the PRC2 Complex Regulates H3K27me3 Deposition during Cell Differentiation” (Molecular Cell, 2015)

Biological target: ΔEed (Eed residues 77 to 441) (UniProt O75530)
Assay: ITC; ΔEed (residues 77 to 441) with methylated peptides; conditions in the Supplemental Experimental Procedures

ΔEed (Eed residues 77 to 441), sequence (O75530 77-441, stated change not applied): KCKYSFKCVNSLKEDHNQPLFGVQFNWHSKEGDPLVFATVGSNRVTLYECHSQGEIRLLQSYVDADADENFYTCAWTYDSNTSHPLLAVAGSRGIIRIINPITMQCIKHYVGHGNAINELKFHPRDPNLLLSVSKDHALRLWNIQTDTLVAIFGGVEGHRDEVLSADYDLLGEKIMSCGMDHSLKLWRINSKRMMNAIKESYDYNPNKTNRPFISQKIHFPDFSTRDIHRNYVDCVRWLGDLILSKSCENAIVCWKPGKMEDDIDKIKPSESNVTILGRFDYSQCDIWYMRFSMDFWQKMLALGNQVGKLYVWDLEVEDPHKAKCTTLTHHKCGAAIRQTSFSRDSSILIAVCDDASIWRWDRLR

Which Kd does the source give for Jarid2-K116me3 peptide here?
The Kd was 3000 nM.

And the fold affinity against the H3K27me3 peptide?
Its fold affinity against the H3K27me3 peptide is 10 fold.
